Our source for the Relative EC50 vs 502, Binding (FP) values is US20200277339A1.

This assay has as its target recombinant purified fragment of TLR5 ectodomain of fish origin (fish). Kind of assay: competition fluorescence polarization, cell-free.

For the substance CBLB502 (ligand), the Relative EC50 vs 502, Binding (FP) amounted to 1 fold vs 502.
